How the values were obtained:
[1] = target: T1, human PD-1 on cells (293T cells transfected with human PD-1) (human, UniProt Q15116 25-288); test: FACS ligand blockage: PD-L1 binding to 293T-PD1 cells
T1 construct: whole, on cells; Also used as the target for the functional rows, where PD-1 stands on human T cells

[2] = target: T2, human PD-1 (construct not stated) (human, UniProt Q15116 25-167, limits assumed); test: SPR (Biacore 3000), antibody captured on the chip, PD-1 as analyte, 1:1 Langmuir fit
T2 construct: also called PD-1 analyte
Procedure: To characterize the binding characteristics of the humanized antibodies, the binding kinetics between PD-1 and PD-1 antibodies were measured by Biacore3000 and recorded with a data collection rate of 1 Hz. The polyclonal rabbit anti-mouse IgG (GE, BR-1008-38) was diluted with 10 mM pH 5.0 sodium acetate and immobilized onto reference and experiment flow cells of a CMS biosensor chip to around 15000 RU using an amine coupling kit (GE, BR10050). In the beginning of each cycle, diluted test antibody (1.5 μg/mL) was injected over experiment flow cell for 1 minute to be captured. PD-1 analyte series were prepared by diluting the stocks with running buffer to 100nM followed by 2× serial dilution in the same buffer down to 0.78nM. Analytes were injected in series over the reference and experiment flow cells for 3 minutes at a flow rate of 30 μL/minute. Then running buffer (PBS with 0.05% P20) was allowed to flow over for 10 minutes at a flow rate of 30 μL/minute. At the end of each cycle, the biosensor surface was regenerated with 3 minutes injection of 10 mM pH1.7 Glycine-HC1 buffer at a flow rate of 10 μL/minute. For each analyte sample injection (i.e. each cycle), binding responses obtained from the experimental biosensor surface were double referenced by subtracting simultaneously recorded responses from the reference surface followed by additional subtraction of responses from a single referenced running buffer sample. The association and dissociation rate constants (ka and kd) were determined simultaneously by fitting double-referenced sensorgrams of the entire titration series to Langmuir model (1:1) using Biaevaluation 4.0 software. The dissociation constant, KD, was calculated from the determined rate constants by the relation KD =kd/ka. […] The Biocore binding curves are shown in FIGS. 10 and 17A, top panel, and the quantified binding data are summarized in FIGS. 10 and 17A, bottom panel.

T2 sequence (Q15116 25-167 limits assumed): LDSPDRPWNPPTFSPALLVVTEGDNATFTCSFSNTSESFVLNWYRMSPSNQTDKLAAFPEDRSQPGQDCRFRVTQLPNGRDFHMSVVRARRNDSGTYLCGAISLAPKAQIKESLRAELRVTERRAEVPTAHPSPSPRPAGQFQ
T1 sequence (Q15116 25-288): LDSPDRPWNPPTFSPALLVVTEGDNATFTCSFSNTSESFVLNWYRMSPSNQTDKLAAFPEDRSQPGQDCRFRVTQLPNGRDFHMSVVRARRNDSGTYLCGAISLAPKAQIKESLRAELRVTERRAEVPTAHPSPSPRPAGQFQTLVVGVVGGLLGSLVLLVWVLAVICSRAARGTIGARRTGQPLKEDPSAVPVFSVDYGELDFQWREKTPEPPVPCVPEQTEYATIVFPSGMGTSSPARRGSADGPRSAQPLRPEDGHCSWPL

IC50 [1]: 0.0258 µg/mL
Ka [2]: 2.55e+09 M⁻¹
Kd [2]: 0.391 nM
koff [2]: 0.000532 s⁻¹
kon [2]: 1.36e+06 M⁻¹ s⁻¹
B1: humanized 7A4D-hIgG4 (antibody, V domains shown)
VH: QIQLVQSGSELKKPGASVKVSCKASGYTFTNFGMNWVRQAPGQGLKWMGWISGYTREPTYAADFKGRFVISLDTSVSTAYLQISSLKAEDTAVYYCARDVFDYWGQGTLVTVSS
VL: DIVLTQSPASLAVSPGQRATITCRASESVDNYGYSFMNWFQQKPGQPPKLLIYRASNLESGVPARFSGSGSRTDFTLTINPVEADDTANYYCQQSNADPTFGQGTKLEIKR
notes: also called h7A4D
